{
  "source": "patent US12296018B2",
  "about": "“Albumin binding peptide-drug (AlBiPeD) conjugates and methods of making and using same” (priority 2018, dated 2025)",
  "key": {"[1]": {"molecular_target": "T1, human serum albumin (HSA) (Homo sapiens, UniProt P02768)", "T1 construct": "purchased Sigma-Aldrich (St. Louis, MO)", "assay": "Native-PAGE mobility shift with HSA", "type": "binding", "details": "1:1 molar ratio", "method": "(§1) The gel was stained with SimplyBlue stain according to the manufacturer's instructions and imaged using the Gel Doc imaging system (Bio-Rad, Hercules, CA). Isothermal titration calorimetry was done using a standard volume Nano ITC from TA instruments (Lindon, Utah). […] The calorimetric data were analyzed by NanoAnalyze software (TA instruments, Lindon, UT) and were fit to an independent binding site model to compute the thermodynamic parameters including dissociation constant (KD), binding stoichiometry (n), enthalpy (ΔH), and entropy (ΔS)."}, "[2]": {"molecular_target": "T2, mouse serum albumin (MSA) (Mus musculus, UniProt P07724)", "T2 construct": "purchased Sigma-Aldrich (St. Louis, MO)", "T2 sequence (P07724 25-608)": "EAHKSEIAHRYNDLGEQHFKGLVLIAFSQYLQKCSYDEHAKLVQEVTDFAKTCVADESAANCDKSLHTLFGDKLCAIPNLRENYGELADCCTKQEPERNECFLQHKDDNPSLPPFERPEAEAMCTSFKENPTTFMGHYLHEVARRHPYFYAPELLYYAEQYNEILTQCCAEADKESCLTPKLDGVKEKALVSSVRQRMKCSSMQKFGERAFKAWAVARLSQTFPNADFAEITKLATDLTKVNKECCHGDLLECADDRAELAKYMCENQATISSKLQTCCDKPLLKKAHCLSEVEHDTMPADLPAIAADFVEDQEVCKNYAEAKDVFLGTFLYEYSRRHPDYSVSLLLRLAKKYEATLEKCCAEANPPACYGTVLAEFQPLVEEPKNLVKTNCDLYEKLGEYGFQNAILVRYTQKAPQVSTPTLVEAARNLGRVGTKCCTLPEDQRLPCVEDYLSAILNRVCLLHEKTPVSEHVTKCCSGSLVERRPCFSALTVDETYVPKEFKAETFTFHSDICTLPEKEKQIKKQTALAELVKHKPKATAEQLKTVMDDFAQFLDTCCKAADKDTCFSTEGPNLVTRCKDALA", "assay": "Native-PAGE mobility shift with MSA", "type": "binding", "details": "1:1 molar ratio", "method": "as §1"}, "[3]": {"assay": "pH-dependent Dox release from ABD-Dox conjugate (size exclusion HPLC)", "type": "physicochemical", "method": "Drug release Dox release from the ABD-Dox conjugate was measured at pH 7.4 and 5.0, corresponding to the physiological pH and late endosomal pH, respectively. ABD-Dox in PBS (400 μM Dox Equiv.) was diluted with an equal volume of either 0.1 M Na—PO4, pH 7.4 buffer, 0.1 M Na-acetate, pH 5.0 buffer, incubated at 37° C. for 0, 0.25, 0.5, 1, 2, 4, 6, and 24 h, and neutralized using an equal volume of 0.1 M Na—PO4, pH 7.4 buffer. Samples were then analyzed by size exclusion HPLC using the same chromatography conditions as described above for the characterization of Dox conjugates and the percentage of released Dox was calculated by integrating the area under the peak corresponding to unbound Dox. The cumulative percent released Dox (F %, released) versus time was fit to a first order release model: F %, released=a[1−exp(−ln(2)t/t1/2)] where t is the time (h) after incubation, tia is the half-maximal release time (h), and a (%) is the maximum extent of drug release, using GraphPad Prism software (GraphPad, San Diego, CA)."}, "[4]": {"system": "C26 murine colon carcinoma cells", "assay": "In vitro cytotoxicity (MTS, 72 h) C26", "type": "cell-based", "method": "(§2) In vitro cytotoxicity C26 murine colon carcinoma cells and three different pancreatic cancer cell lines, BxPC-3, AsPC-1, and MIA PaCa-2, were used to study the in vitro cytotoxicity of ABD-DOX and Dox. Cells were cultured and grown as monolayers at 37° C. with C02 in a humidified incubator and were passaged at ˜80% confluency using 0.05% trypsin-EDTA (Invitrogen, Carlsbad, CA). C26, BxPC-3, AsPC-1, and MIA PaCa-2 cells were seeded in 96-well plates (5,000 cells/well) and incubated overnight. Three-fold serial dilutions of drug were then added to the wells in triplicate and also to control wells (media with no cells) to correct for the background Dox absorbance. After 72 h treatment, 20 μL MTS reagent was added to each well and was incubated for 3 h at 37° C., and the absorbance at 490 nm was measured using a Victor3 plate reader (Perkin Elmer, Boston, MA). Cell viability (%) was defined as the percentage of the absorbance of the drug-treated cells relative to buffer-treated cells and IC50 values were determined using logistic non-linear regression analysis with GraphPad Prism software. The IC50 was defined as the Dox Equiv. concentration of formulations resulting in 50% growth inhibition compared with a negative control, buffer-treated cells."}, "[5]": {"system": "MIA PaCa-2 cells", "assay": "In vitro cytotoxicity (MTS, 72 h) MIA PaCa-2", "type": "cell-based, human", "details": "72 h incubation, Dox Equiv. concentration", "method": "as §2"}, "[6]": {"assay": "Tissue biodistribution in C26 tumor-bearing BALB/c mice", "type": "in vivo", "excerpt": "The tissue concentration of Dox."}, "[7]": {"system": "MIA PaCa-2 pancreatic tumor xenografts", "assay": "In vivo tumor regression, MIA PaCa-2 xenograft model", "parameters": "species or system nude BALB/c mice", "method": "In vivo tumor regression For in vivo tumor implantation, C26 cells at 5×10^5 cells in 30 μL Minimum Essential Medium (MEM) (Invitrogen, Carlsbad, CA) and MIA PaCa-2 cells at 2×10^6 cells in 50 μL 10:90 v/v MEM: Matrigel matrix (Corning Inc, Corning, New York) were inoculated in the right flank of normal and athymic nude BALB/c mice, respectively. Tumor cells were allowed to grow until the tumor volume, calculated as π/6×length×width^2, reached 75-100 mm^3 for C26 tumors and 100-125 mm^3 for MIA PaCa-2 tumors. Tumor bearing mice were then treated with ABD-Dox at 10 and 20 mg Dox Equiv.kg^−1 BW, AlDox at 20 mg Dox Equiv.kg^−1 BW, and free Dox at 10 mgkg^−1 BW. Tumor volumes and body weights were monitored for 100 days after treatment and mice displaying excessive tumor volume (>[…]), body weight loss (>15%), or ill health were euthanized. Tumor growth and survival data were analyzed by GraphPad Prism software. Survival curves were generated with the Kaplan-Meier method and compared with the log-rank (Mantel-Cox) test. Tumor growth data were compared with a paired one-way ANOVA followed by Tukey-Kramer (Tukey's) post-hoc test. P<0.05 was considered as statistically significant.\nFor in vivo tumor regression studies, a single dose of ABD-Dox was injected via tail vein at 10 mg Dox Equiv.kg^−1 BW (MTD of free Dox) and 20 mg Dox Equiv.kg^−1 BW (MTD of ABD-Dox) in separate cohorts of BALB/c mice with s.c. C26 tumors or nude mice with s.c. MIA Paca-2 tumors. Free Dox was injected at its MTD of 10 mgkg-1 BW, and AlDox was injected at 20 mg Dox Equiv.kg^−1 BW, a dose that was reported to be safe in previous studies. All animals were injected when the tumors were 75-100 mm; in size for C26 tumors and 100-125 mm^3 for MIA PaCa-2 tumors."}},
  "note": "Where “and” joins values, the source holds several entries; their conditions need not be identical. Equal entries are not always repeated. Entries after “also recorded” stand apart in the source; their conditions may differ.",
  "data": [
    {"substance": "ABD-Dox (GLAEAKVLANRELDKYGVSDYYKNLINNAKTVEGVKALIDEILAALPCGGCGGCGGCGG)", "values": [
      {"measurement": "binding to HSA by mobility shift", "setting": "[1]", "result": "confirmed binding"},
      {"measurement": "binding to MSA by mobility shift", "setting": "[2]", "result": "confirmed binding"},
      {"measurement": "drug released", "setting": "[3]; pH 5.0, over 24 h, 37° C.", "result": "about 70%"},
      {"measurement": "Dox release", "setting": "[3]; pH 7.4, 37° C.", "result": "negligible; also recorded: low, basal level of release"},
      {"measurement": "IC50", "setting": "[4]; 72 h incubation, Dox Equiv. concentration", "result": "6.4 µM and 6.43 µM"},
      {"measurement": "in vitro cytotoxicity, fold lower than free Dox", "setting": "[4]; C26 and MIA PaCa-2 cells", "result": "10-30 fold"},
      {"measurement": "IC50", "setting": "[5]", "result": "1.4 µM and 1.41 µM"},
      {"measurement": "AUC in other tissues compared to free Dox", "setting": "[6]; 2 to 72 h", "result": "No significant difference"},
      {"measurement": "AUC in the spleen, lower than free Dox", "setting": "[6]; 2 to 72 h", "result": "~50", "unit": "%"},
      {"measurement": "AUC in the tumor, fold greater than free Dox", "setting": "[6]; 2 to 72 h", "result": 16, "unit": "fold"},
      {"measurement": "concentration in kidneys compared to free Dox", "setting": "[6]; 2 h", "result": "lower concentration"},
      {"measurement": "concentration in liver compared to free Dox", "setting": "[6]; 2 h", "result": "lower concentration"},
      {"measurement": "concentration in muscle compared to free Dox", "setting": "[6]; 2 h", "result": "lower concentration"},
      {"measurement": "concentration in spleen compared to free Dox", "setting": "[6]; 2 h", "result": "lower concentration"},
      {"measurement": "concentration in heart compared to free Dox", "setting": "[6]; 24 h", "result": "higher concentration"},
      {"measurement": "concentration in liver compared to free Dox", "setting": "[6]; 24 h", "result": "higher concentration"},
      {"measurement": "concentration in lungs compared to free Dox", "setting": "[6]; 24 h", "result": "higher concentration"},
      {"measurement": "concentration in muscle compared to free Dox", "setting": "[6]; 24 h", "result": "higher concentration"},
      {"measurement": "concentration in spleen compared to free Dox", "setting": "[6]; 24 h", "result": "lower concentration"},
      {"measurement": "accumulation in kidneys compared to free Dox", "setting": "[6]; 72 h", "result": "higher"},
      {"measurement": "accumulation in liver compared to free Dox", "setting": "[6]; 72 h", "result": "higher"},
      {"measurement": "accumulation in lungs compared to free Dox", "setting": "[6]; 72 h", "result": "higher"},
      {"measurement": "accumulation in muscle compared to free Dox", "setting": "[6]; 72 h", "result": "higher"},
      {"measurement": "tumor accumulation, fold greater than free Dox", "setting": "[6]; 72 h", "result": "~120", "unit": "fold"},
      {"measurement": "survival compared with free Dox", "setting": "[7]; 10 mg Dox Equiv.kg^−1 BW", "result": "No significant difference"},
      {"measurement": "survival compared with AlDox", "setting": "[7]; 20 mg Dox Equiv.kg^−1 BW", "result": "No significant difference"},
      {"measurement": "survival compared with free Dox", "setting": "[7]; 20 mg Dox Equiv.kg^−1 BW", "result": "significantly longer survival"},
      {"measurement": "tumor regression compared with AlDox", "setting": "[7]; 20 mg Dox Equiv.kg^−1 BW", "result": "superior tumor regression efficacy"},
      {"measurement": "tumor-free period compared with AlDox", "setting": "[7]; 20 mg Dox Equiv.kg^−1 BW, 100-day span", "result": "longer tumor-free period"},
      {"measurement": "mice showing tumor disappearance", "setting": "[7]; by day 15 after treatment, 20 mg Dox Equiv.kg^−1 BW", "result": "all"},
      {"measurement": "tumor recurrence in tumor-eradicated mice", "setting": "[7]; throughout the 100 day course of study, 20 mg Dox Equiv.kg^−1 BW", "result": 25, "unit": "%"}
    ]}
  ]
}
